Laboratory results as given in the supplement of paper PMC10567573.

B1: TRAF3IP2 (parent)
chain: FMEKRNQWLVSQLSAASPDTGHDS

Variants of: B1
Test: protein stability index of a GFP-peptide fusion (GPS, HEK-293T) (PSI 1-6); higher = more stable
Conditions: c terminus: a fixed tail appended
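Also: lentivirally expressed fusions sorted by FACS into six bins by GFP to DsRed ratio, PSI derived from sequencing read proportions per bin multiplied by bin number.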

Variant	protein stability index
FMEKRNQWLVSQLSAASPVTGHDS	1.92
FMEKRNQWLVSQLSAASPYTGHDS	1.41
FMEKRNQWLVSQLSAASPFTGHDS	1.8
FMEKRNQWLVSQLSAASPSTGHDS	2.43
FMEKRNQWLVSQLSAASPMTGHDS	2.57
FMEKRNQWLVSQLSAASPNTGHDS	2.4
FMEKRNQWLVSQLSAASPCTGHDS	2.45
FMEKRNQMLVSQLSAASPDTGHDS	4.72
FMEKRNQPLVSQLSAASPDTGHDS	4.58
FMEKRNQALVSQLSAASPDTGHDS	4.75
FMEKRNQDLVSQLSAASPDTGHDS	5.06
FMEKRNQTLVSQLSAASPDTGHDS	5.2
FMEKRNQQLVSQLSAASPDTGHDS	4.63
FMEKRNQWLVSKLSAASPDTGHDS	1.77
FMEKRNQWLVSILSAASPDTGHDS	1.89
FMEKRNQWLVSFLSAASPDTGHDS	1.94
FMEKRNQWLVSWLSAASPDTGHDS	1.45
FMEKRNQWLVSPLSAASPDTGHDS	2.71
FMEKRNQWLVSALSAASPDTGHDS	2.04
FMEKRNQWLVSELSAASPDTGHDS	3.33
FMEKRNQWLVSQLSAASFDTGHDS	1.9
FMEKRNQWLVSQLSAASHDTGHDS	2.08
FMEKRNQWLVSQLSAASMDTGHDS	2.22
FMEKRNQWLVSQLSAASQDTGHDS	2.09

Variant	protein stability index
FMEKRNQWLVSQLSAASTDTGHDS	2.94
FMEKRNQWLVSQLSAASRDTGHDS	2.77
FMEKRNQWLVSQLSAASNDTGHDS	2.5
FMEKRNQWLVSQLSAASIDTGHDS	2.69
FMEKRNQWLVSQLSAASEDTGHDS	2.62
FMEKRNQWLVSQLSAASDDTGHDS	2.88
FMEKRNQWLVSQLSAASPDTFHDS	1.58
FMEKRNQWLVSQLSAASPDTNHDS	2.56
FMEKRNQWLVSQLSAASPDTEHDS	3.22
FMEKRNQWLVSQLSAASPDTDHDS	2.47
FMEKRNQWLVSQLSAASPDTHHDS	2.2
FMEKRNQWLVSQLSAASPDTIHDS	1.8
FMEKRNQWLVSQLSAASPDTCHDS	1.8
FMEKRNQWLVSQLSAASPDTYHDS	2.08
QMEKRNQWLVSQLSAASPDTGHDS	4.88
WMEKRNQWLVSQLSAASPDTGHDS	3.17
IMEKRNQWLVSQLSAASPDTGHDS	3.72
TMEKRNQWLVSQLSAASPDTGHDS	4.2
AMEKRNQWLVSQLSAASPDTGHDS	4.91
PMEKRNQWLVSQLSAASPDTGHDS	3.95
LMEKRNQWLVSQLSAASPDTGHDS	3.88
MMEKRNQWLVSQLSAASPDTGHDS	3.56
EMEKRNQWLVSQLSAASPDTGHDS	4.77
FMEKRNQWLVSQSSAASPDTGHDS	3.17

Variant	protein stability index
FMEKRNQWLVSQPSAASPDTGHDS	3.13
FMEKRNQWLVSQGSAASPDTGHDS	2.47
FMEKRNQWLVSQASAASPDTGHDS	3.73
FMEKRNQWLVSQWSAASPDTGHDS	2.45
FMEKRNQWLVSQISAASPDTGHDS	2.17
FMEKRNQWLVSQLSAAQPDTGHDS	2.63
FMEKRNQWLVSQLSAALPDTGHDS	2.54
FMEKRNQWLVSQLSAACPDTGHDS	2.98
FMEKRNQWLVSQLSAAVPDTGHDS	1.88
FMEKRNQWLVSQLSAANPDTGHDS	2.35
FMEKRNQWLVSQLSAAPPDTGHDS	2.66
FMEKRNQWLVSQLSAATPDTGHDS	3.03
FMEKRNQWLVSQLSAAYPDTGHDS	1.71
FMEKRNQWLVSQLSAAHPDTGHDS	2.73
FMEKRNQWLGSQLSAASPDTGHDS	3.14
FMEKRNQWLNSQLSAASPDTGHDS	3.46
FMEKRNQWLESQLSAASPDTGHDS	4.34
FMEKRNQWLTSQLSAASPDTGHDS	3.21
FMEKRNQWLISQLSAASPDTGHDS	2.12
FMEKRNQWLLSQLSAASPDTGHDS	2.29
FMEKRNQWLASQLSAASPDTGHDS	3.61
FMEKRNQWLQSQLSAASPDTGHDS	2.93
FMEKRNQWLHSQLSAASPDTGHDS	3.38
FMCKRNQWLVSQLSAASPDTGHDS	1.58

Variant	protein stability index
FMWKRNQWLVSQLSAASPDTGHDS	1.81
FMHKRNQWLVSQLSAASPDTGHDS	1.71
FMVKRNQWLVSQLSAASPDTGHDS	1.95
FMYKRNQWLVSQLSAASPDTGHDS	3.02
FMAKRNQWLVSQLSAASPDTGHDS	3
FMIKRNQWLVSQLSAASPDTGHDS	2.32
FMEKRNQWLVSQLSAASPDTGHYS	1.75
FMEKRNQWLVSQLSAASPDTGHNS	2.08
FMEKRNQWLVSQLSAASPDTGHGS	2.11
FMEKRNQWLVSQLSAASPDTGHRS	2.07
FMEKRNQWLVSQLSAASPDTGHAS	2.49
FMEKRNQWLVSQLSAASPDTGHKS	1.6
FMEKRNQWLVSQLSAASPDTGHTS	2.57
FMEKRNQWLVSQLSAASPDTGHMS	2.12
FMEKRNQWLVSQLSAASPDTGHFS	2.22
FMEKRNQWLVSQLSAASPDTGHLS	1.81
FMEKRNQWLVSQLSAASPDSGHDS	3.24
FMEKRNQWLVSQLSAASPDAGHDS	2.32
FMEKRNQWLVSQLSAASPDLGHDS	1.96
FMEKRNQWLVSQLSAASPDCGHDS	2.65
FMEKRNQWLVSQLSAASPDWGHDS	1.02
FMEKRNQWLVSQLSAASPDRGHDS	1.89
FMEKRNQWLVSQLSAASPDVGHDS	2.75
FMEKRNQWLVSQLSAASPDDGHDS	2.94

Variant	protein stability index
FMEKRNQWLVSQLSAASPDHGHDS	2.38
FMESRNQWLVSQLSAASPDTGHDS	2.24
FMETRNQWLVSQLSAASPDTGHDS	2.52
FMEHRNQWLVSQLSAASPDTGHDS	2.16
FMERRNQWLVSQLSAASPDTGHDS	2.54
FMELRNQWLVSQLSAASPDTGHDS	2.26
FMEARNQWLVSQLSAASPDTGHDS	1.71
FCEKRNQWLVSQLSAASPDTGHDS	2.94
FTEKRNQWLVSQLSAASPDTGHDS	2.55
FKEKRNQWLVSQLSAASPDTGHDS	4.28
FLEKRNQWLVSQLSAASPDTGHDS	2.46
FFEKRNQWLVSQLSAASPDTGHDS	3.6
FREKRNQWLVSQLSAASPDTGHDS	3.56
FEEKRNQWLVSQLSAASPDTGHDS	4.75
FWEKRNQWLVSQLSAASPDTGHDS	3.41
FMEKRNQWEVSQLSAASPDTGHDS	4.27
FMEKRNQWSVSQLSAASPDTGHDS	3.15
FMEKRNQWMVSQLSAASPDTGHDS	2.36
FMEKRNQWYVSQLSAASPDTGHDS	2.9
FMEKRNQWTVSQLSAASPDTGHDS	2.44
FMEKRNQWIVSQLSAASPDTGHDS	2.9
FMEKRNQWAVSQLSAASPDTGHDS	2.19
FMEKRNQWGVSQLSAASPDTGHDS	3.34
FMEKRNQWLVSQLSIASPDTGHDS	1.77

Variant	protein stability index
FMEKRNQWLVSQLSLASPDTGHDS	2.3
FMEKRNQWLVSQLSCASPDTGHDS	2.38
FMEKRNQWLVSQLSRASPDTGHDS	3.45
FMEKRNQWLVSQLSVASPDTGHDS	1.83
FMEKRNQWLVSQLSHASPDTGHDS	2.33
FMEKRNQWLVSQLSFASPDTGHDS	1.83
FMEKRNQWLVSQLSEASPDTGHDS	2.73
FMEKRNQWLVSQLSWASPDTGHDS	2.29
FMEKRNQWLVSQLSMASPDTGHDS	1.7
FMEKRNQWLVSQLSPASPDTGHDS	2.75
FMEKWNQWLVSQLSAASPDTGHDS	3.1
FMEKANQWLVSQLSAASPDTGHDS	1.97
FMEKDNQWLVSQLSAASPDTGHDS	2.99
FMEKMNQWLVSQLSAASPDTGHDS	2.94
FMEKNNQWLVSQLSAASPDTGHDS	1.98
FMEKPNQWLVSQLSAASPDTGHDS	1.36
FMEKINQWLVSQLSAASPDTGHDS	1.68
FMEKRNQWLVSQLLAASPDTGHDS	1.66
FMEKRNQWLVSQLQAASPDTGHDS	2.57
FMEKRNQWLVSQLEAASPDTGHDS	2.74
FMEKRNQWLVSQLAAASPDTGHDS	2.34
FMEKRNQWLVSQLMAASPDTGHDS	2.34
FMEKRNQWLVSQLCAASPDTGHDS	2.15
FMEKRNQWLVSQLGAASPDTGHDS	2.3

Variant	protein stability index
FMEKRNQWLVSQLDAASPDTGHDS	3.29
FMEKRNQWLVSQLSAASPDTGLDS	2.29
FMEKRNQWLVSQLSAASPDTGMDS	2.15
FMEKRNQWLVSQLSAASPDTGRDS	1.82
FMEKRNQWLVSQLSAASPDTGTDS	3.27
FMEKRNQWLVSQLSAASPDTGPDS	2.94
FMEKRNQWLVSQLSAASPDTGNDS	2.59
FMEKRNQWLVSQLSAASPDTGIDS	1.95
FMEKRNQWLVSQLSARSPDTGHDS	1.54
FMEKRNQWLVSQLSACSPDTGHDS	1.96
FMEKRNQWLVSQLSAESPDTGHDS	2.62
FMEKRNQWLVSQLSAASPDTGHDQ	2.85
FMEKRNQWLVSQLSAASPDTGHDN	2.68
FMEKRNQWLVSQLSAASPDTGHDA	2.4
FMEKRNQWLVSQLSAASPDTGHDI	2.1
FMEKRNQWLVSQLSAASPDTGHDL	2.22
FMEKRNQWLVSQLSAASPDTGHDP	2.68
FMEKRNQWLVSQLSAASPDTGHDM	2.09
FMEKRNQWLVSQLSAASPDTGHDG	3.22
FMEKRNQWLVSQLSAASPDTGHDE	3.68
FMEKRNQWLVSQLSAASPDTGHDC	2.61
FMEKRNQWLVSQLSAASPDTGHDV	2.29
FMEKRNQWLVDQLSAASPDTGHDS	3.79
FMEKRNQWLVCQLSAASPDTGHDS	2.22

Variant	protein stability index
FMEKRNQWLVMQLSAASPDTGHDS	1.71
FMEKRNQWLVYQLSAASPDTGHDS	2.64
FMEKRNQWLVTQLSAASPDTGHDS	2.19
FMEKRNQWLVRQLSAASPDTGHDS	3.3
FMEKRNQWLVNQLSAASPDTGHDS	3.18
FMEKRNQWLVEQLSAASPDTGHDS	3.27
FMEKRNQWLVVQLSAASPDTGHDS	2.4
FMEKRNKWLVSQLSAASPDTGHDS	3.36
FMEKRNRWLVSQLSAASPDTGHDS	2.98
FMEKRNAWLVSQLSAASPDTGHDS	1.02
FMEKRNWWLVSQLSAASPDTGHDS	2.86
FMEKRNPWLVSQLSAASPDTGHDS	1.58
FMEKRNDWLVSQLSAASPDTGHDS	3.31
FMEKRNIWLVSQLSAASPDTGHDS	2.35
FMEKRRQWLVSQLSAASPDTGHDS	2.44
FMEKRYQWLVSQLSAASPDTGHDS	1.56
FMEKRHQWLVSQLSAASPDTGHDS	2.05
FMEKRGQWLVSQLSAASPDTGHDS	3.08
FMEKRVQWLVSQLSAASPDTGHDS	2.02
FMEKRAQWLVSQLSAASPDTGHDS	2.24
